Data: PMC7954794 (2021)

B1: S. cerevisiae Abp1 (full length; SH3 domain 535-592 mutated) / Hua2 (parent complex)
chain 1: MALEPIDYTTHSREIDAEYLKIVRGSDPDTTWLIISPNAKKEYEPESTGSSFHDFLQLFDETKVQYGLARVSPPGSDVEKIIIIGWCPDSAPLKTRASFAANFAAVANNLFKGYHVQVTARDEDDLDENELLMKISNAAGARYSIQTSSKQQGKASTPPVKKSFTPSKSPAPVSKKEPVKTPSPAPAAKISSRVNDNNDDDDWNEPELKERDFDQAPLKPNQSSYKPIGKIDLQKVIAEEKAKEDPRLVQKPTAAGSKIDPSSDIANLKNESKLKRDSEFNSFLGTTKPPSMTESSLKNDDDKVIKGFRNEKSPAQLWAERKAKQNSGNAETKAEAPKPEVPEDEPEGEPDVKDLKSKFEGLAASEKEEEEMENKFAPPPKKSEPTIISPKPFSKPQEPVKAEEAEQPKTDYKKIGNPLPGMHIEADNEEEPEENDDDWDDDEDEAAQPPLPSRNVASGAPVQKEEPEQEEIAPSLPSRNSIPAPKQEEAPEQAPEEEIEEEAEEAAPQLPSRSSAAPPPPPRRATPEKKPKENPWATAEYDYDAAEDNELTFVENDKIINIEFVDDDWWLGELEKDGSKGLFPSNYVSLGN
chain 2: MQQTKFGKMYLDHDSVVEYSEDEIVEADRITLGYKKRLSMIENQMRHLLEDFSLDVQQIEPILADLQKYYDAFLQLLQKRNKSLQCKRSTHQPVPSPMNSQTSTNAKVNLSGKLMKFQLNSVQKFDEENILRILQNKIEFEHYFQIDKGKKQKVLLLAVYQCLNGPTRLHKVLNIEGIIHNNSIRTILGKQVSSSKWTVFLYDVKLVLLAHRQDVPNLETSKMIVRYGDLFPCALYFKDHTAY

Variants of: B1
Assay: DHFR protein-fragment complementation in yeast (Abp1-DHFR F[1,2] x partner-DHFR F[3]), deep mutational scanning, second methotrexate selection vs reference; S. cerevisiae, DHFR-PCA selection in liquid with methotrexate at 30 C, two 72 h selections (the score uses the second); reference = the pre-selection culture

Row | screen value | Variant
1 | -0.0963 DMS score: mean over two replicates of log2(f_test/f_ref + 0.5)/ln 2, minus the synonymous-codon median (not a log2 … | chain 1 I559L
2 | -0.642 DMS score: mean over two replicates of log2(f_test/f_ref + 0.5)/ln 2, minus the synonymous-codon median (not a log2 … | chain 1 L551M
3 | -2.23 DMS score: mean over two replicates of log2(f_test/f_ref + 0.5)/ln 2, minus the synonymous-codon median (not a log2 … | chain 1 F564H
4 | -0.596 DMS score: mean over two replicates of log2(f_test/f_ref + 0.5)/ln 2, minus the synonymous-codon median (not a log2 … | chain 1 T538S
5 | -0.259 DMS score: mean over two replicates of log2(f_test/f_ref + 0.5)/ln 2, minus the synonymous-codon median (not a log2 … | chain 1 T538Q
6 | 0.283 DMS score: mean over two replicates of log2(f_test/f_ref + 0.5)/ln 2, minus the synonymous-codon median (not a log2 … | chain 1 T538M
7 | -2.49 DMS score: mean over two replicates of log2(f_test/f_ref + 0.5)/ln 2, minus the synonymous-codon median (not a log2 … | chain 1 D568G
8 | -2.94 DMS score: mean over two replicates of log2(f_test/f_ref + 0.5)/ln 2, minus the synonymous-codon median (not a log2 … | chain 1 D568F
9 | -0.814 DMS score: mean over two replicates of log2(f_test/f_ref + 0.5)/ln 2, minus the synonymous-codon median (not a log2 … | chain 1 K576Q
10 | -0.301 DMS score: mean over two replicates of log2(f_test/f_ref + 0.5)/ln 2, minus the synonymous-codon median (not a log2 … | chain 1 K576H
11 | -2.89 DMS score: mean over two replicates of log2(f_test/f_ref + 0.5)/ln 2, minus the synonymous-codon median (not a log2 … | chain 1 S585K
12 | -1.55 DMS score: mean over two replicates of log2(f_test/f_ref + 0.5)/ln 2, minus the synonymous-codon median (not a log2 … | chain 1 S585R
13 | -2.79 DMS score: mean over two replicates of log2(f_test/f_ref + 0.5)/ln 2, minus the synonymous-codon median (not a log2 … | chain 1 S585H
14 | 1.11 DMS score: mean over two replicates of log2(f_test/f_ref + 0.5)/ln 2, minus the synonymous-codon median (not a log2 … | chain 1 S585A
15 | -0.716 DMS score: mean over two replicates of log2(f_test/f_ref + 0.5)/ln 2, minus the synonymous-codon median (not a log2 … | chain 1 S585V
16 | -0.283 DMS score: mean over two replicates of log2(f_test/f_ref + 0.5)/ln 2, minus the synonymous-codon median (not a log2 … | chain 1 A546L
17 | -0.986 DMS score: mean over two replicates of log2(f_test/f_ref + 0.5)/ln 2, minus the synonymous-codon median (not a log2 … | chain 1 A546W
18 | 0.35 DMS score: mean over two replicates of log2(f_test/f_ref + 0.5)/ln 2, minus the synonymous-codon median (not a log2 … | chain 1 A546T
19 | -0.272 DMS score: mean over two replicates of log2(f_test/f_ref + 0.5)/ln 2, minus the synonymous-codon median (not a log2 … | chain 1 A546N
20 | 0.793 DMS score: mean over two replicates of log2(f_test/f_ref + 0.5)/ln 2, minus the synonymous-codon median (not a log2 … | chain 1 A546I
21 | 0.502 DMS score: mean over two replicates of log2(f_test/f_ref + 0.5)/ln 2, minus the synonymous-codon median (not a log2 … | chain 1 A546E
22 | 0.862 DMS score: mean over two replicates of log2(f_test/f_ref + 0.5)/ln 2, minus the synonymous-codon median (not a log2 … | chain 1 A546D
23 | 0.374 DMS score: mean over two replicates of log2(f_test/f_ref + 0.5)/ln 2, minus the synonymous-codon median (not a log2 … | chain 1 A546S
24 | 0.673 DMS score: mean over two replicates of log2(f_test/f_ref + 0.5)/ln 2, minus the synonymous-codon median (not a log2 … | chain 1 G591A
25 | 1.01 DMS score: mean over two replicates of log2(f_test/f_ref + 0.5)/ln 2, minus the synonymous-codon median (not a log2 … | chain 1 G591E

Row | screen value | Variant
26 | -0.62 DMS score: mean over two replicates of log2(f_test/f_ref + 0.5)/ln 2, minus the synonymous-codon median (not a log2 … | chain 1 G591R
27 | -0.547 DMS score: mean over two replicates of log2(f_test/f_ref + 0.5)/ln 2, minus the synonymous-codon median (not a log2 … | chain 1 G591W
28 | 0.961 DMS score: mean over two replicates of log2(f_test/f_ref + 0.5)/ln 2, minus the synonymous-codon median (not a log2 … | chain 1 G591P
29 | 0.63 DMS score: mean over two replicates of log2(f_test/f_ref + 0.5)/ln 2, minus the synonymous-codon median (not a log2 … | chain 1 G591T
30 | 0.941 DMS score: mean over two replicates of log2(f_test/f_ref + 0.5)/ln 2, minus the synonymous-codon median (not a log2 … | chain 1 G591N
31 | -0.847 DMS score: mean over two replicates of log2(f_test/f_ref + 0.5)/ln 2, minus the synonymous-codon median (not a log2 … | chain 1 K558S
32 | -0.44 DMS score: mean over two replicates of log2(f_test/f_ref + 0.5)/ln 2, minus the synonymous-codon median (not a log2 … | chain 1 P535K
33 | -0.124 DMS score: mean over two replicates of log2(f_test/f_ref + 0.5)/ln 2, minus the synonymous-codon median (not a log2 … | chain 1 P535H
34 | 0.0703 DMS score: mean over two replicates of log2(f_test/f_ref + 0.5)/ln 2, minus the synonymous-codon median (not a log2 … | chain 1 P535R
35 | 0.493 DMS score: mean over two replicates of log2(f_test/f_ref + 0.5)/ln 2, minus the synonymous-codon median (not a log2 … | chain 1 P535W
36 | 1.23 DMS score: mean over two replicates of log2(f_test/f_ref + 0.5)/ln 2, minus the synonymous-codon median (not a log2 … | chain 1 P535A
37 | 0.129 DMS score: mean over two replicates of log2(f_test/f_ref + 0.5)/ln 2, minus the synonymous-codon median (not a log2 … | chain 1 P535L
38 | 0.611 DMS score: mean over two replicates of log2(f_test/f_ref + 0.5)/ln 2, minus the synonymous-codon median (not a log2 … | chain 1 P535T
39 | 1.56 DMS score: mean over two replicates of log2(f_test/f_ref + 0.5)/ln 2, minus the synonymous-codon median (not a log2 … | chain 1 P535I
40 | 0.522 DMS score: mean over two replicates of log2(f_test/f_ref + 0.5)/ln 2, minus the synonymous-codon median (not a log2 … | chain 1 I560V
41 | -0.196 DMS score: mean over two replicates of log2(f_test/f_ref + 0.5)/ln 2, minus the synonymous-codon median (not a log2 … | chain 1 I560L
42 | -1.73 DMS score: mean over two replicates of log2(f_test/f_ref + 0.5)/ln 2, minus the synonymous-codon median (not a log2 … | chain 1 N586D
43 | -0.942 DMS score: mean over two replicates of log2(f_test/f_ref + 0.5)/ln 2, minus the synonymous-codon median (not a log2 … | chain 1 E540A
44 | -1.63 DMS score: mean over two replicates of log2(f_test/f_ref + 0.5)/ln 2, minus the synonymous-codon median (not a log2 … | chain 1 E540C
45 | -2.31 DMS score: mean over two replicates of log2(f_test/f_ref + 0.5)/ln 2, minus the synonymous-codon median (not a log2 … | chain 1 E540V
46 | -1.62 DMS score: mean over two replicates of log2(f_test/f_ref + 0.5)/ln 2, minus the synonymous-codon median (not a log2 … | chain 1 D567E
47 | -2.86 DMS score: mean over two replicates of log2(f_test/f_ref + 0.5)/ln 2, minus the synonymous-codon median (not a log2 … | chain 1 D567G
48 | -1.8 DMS score: mean over two replicates of log2(f_test/f_ref + 0.5)/ln 2, minus the synonymous-codon median (not a log2 … | chain 1 D567N
49 | -2.81 DMS score: mean over two replicates of log2(f_test/f_ref + 0.5)/ln 2, minus the synonymous-codon median (not a log2 … | chain 1 D567V
50 | 0.0179 DMS score: mean over two replicates of log2(f_test/f_ref + 0.5)/ln 2, minus the synonymous-codon median (not a log2 … | chain 1 S579Q

Row | screen value | Variant
51 | 0.286 DMS score: mean over two replicates of log2(f_test/f_ref + 0.5)/ln 2, minus the synonymous-codon median (not a log2 … | chain 1 S579R
52 | 0.0961 DMS score: mean over two replicates of log2(f_test/f_ref + 0.5)/ln 2, minus the synonymous-codon median (not a log2 … | chain 1 E555Q
53 | 0.193 DMS score: mean over two replicates of log2(f_test/f_ref + 0.5)/ln 2, minus the synonymous-codon median (not a log2 … | chain 1 E555R
54 | -0.276 DMS score: mean over two replicates of log2(f_test/f_ref + 0.5)/ln 2, minus the synonymous-codon median (not a log2 … | chain 1 E555N
55 | -0.507 DMS score: mean over two replicates of log2(f_test/f_ref + 0.5)/ln 2, minus the synonymous-codon median (not a log2 … | chain 1 E555P
56 | -0.509 DMS score: mean over two replicates of log2(f_test/f_ref + 0.5)/ln 2, minus the synonymous-codon median (not a log2 … | chain 1 E555H
57 | 0.585 DMS score: mean over two replicates of log2(f_test/f_ref + 0.5)/ln 2, minus the synonymous-codon median (not a log2 … | chain 1 E555I
58 | -0.17 DMS score: mean over two replicates of log2(f_test/f_ref + 0.5)/ln 2, minus the synonymous-codon median (not a log2 … | chain 1 A539C
59 | 0.415 DMS score: mean over two replicates of log2(f_test/f_ref + 0.5)/ln 2, minus the synonymous-codon median (not a log2 … | chain 1 N556S
60 | 0.175 DMS score: mean over two replicates of log2(f_test/f_ref + 0.5)/ln 2, minus the synonymous-codon median (not a log2 … | chain 1 N556D
61 | 0.313 DMS score: mean over two replicates of log2(f_test/f_ref + 0.5)/ln 2, minus the synonymous-codon median (not a log2 … | chain 1 N556Y
62 | -0.361 DMS score: mean over two replicates of log2(f_test/f_ref + 0.5)/ln 2, minus the synonymous-codon median (not a log2 … | chain 1 N556A
63 | -0.169 DMS score: mean over two replicates of log2(f_test/f_ref + 0.5)/ln 2, minus the synonymous-codon median (not a log2 … | chain 1 N556K
64 | -0.153 DMS score: mean over two replicates of log2(f_test/f_ref + 0.5)/ln 2, minus the synonymous-codon median (not a log2 … | chain 1 G578Q
65 | -1.02 DMS score: mean over two replicates of log2(f_test/f_ref + 0.5)/ln 2, minus the synonymous-codon median (not a log2 … | chain 1 T552R
66 | -0.173 DMS score: mean over two replicates of log2(f_test/f_ref + 0.5)/ln 2, minus the synonymous-codon median (not a log2 … | chain 1 T552A
67 | 0.905 DMS score: mean over two replicates of log2(f_test/f_ref + 0.5)/ln 2, minus the synonymous-codon median (not a log2 … | chain 1 D542P
68 | 0.23 DMS score: mean over two replicates of log2(f_test/f_ref + 0.5)/ln 2, minus the synonymous-codon median (not a log2 … | chain 1 D542C
69 | 0.327 DMS score: mean over two replicates of log2(f_test/f_ref + 0.5)/ln 2, minus the synonymous-codon median (not a log2 … | chain 1 D542A
70 | 0.0251 DMS score: mean over two replicates of log2(f_test/f_ref + 0.5)/ln 2, minus the synonymous-codon median (not a log2 … | chain 1 D542E
71 | 0.456 DMS score: mean over two replicates of log2(f_test/f_ref + 0.5)/ln 2, minus the synonymous-codon median (not a log2 … | chain 1 D542S
72 | 0.779 DMS score: mean over two replicates of log2(f_test/f_ref + 0.5)/ln 2, minus the synonymous-codon median (not a log2 … | chain 1 V554A
73 | -0.408 DMS score: mean over two replicates of log2(f_test/f_ref + 0.5)/ln 2, minus the synonymous-codon median (not a log2 … | chain 1 V554L
74 | 0.912 DMS score: mean over two replicates of log2(f_test/f_ref + 0.5)/ln 2, minus the synonymous-codon median (not a log2 … | chain 1 V554S
75 | 1.28 DMS score: mean over two replicates of log2(f_test/f_ref + 0.5)/ln 2, minus the synonymous-codon median (not a log2 … | chain 1 V554K
